In patent US20100047255A1 (Harvard, published 2010):

Assays:
[1] = molecular target: Nedd8 (endogenous protein of 293T cells) (human, UniProt Q15843 1-76); assay: anti-Nedd8 immunoblot of anti-HA immune complexes from 293T cells, non-reducing SDS-PAGE
[2] = molecular target: ubiquitin (endogenous protein of 293T cells) (human, UniProt P0CG48 1-76); assay: LC/MS/MS (LTQ-Orbitrap) of Flag-HA-Uba6˜Ub purified from mammalian cells

Chain of Nedd8 (endogenous protein of 293T cells) (Q15843 1-76 limits assumed): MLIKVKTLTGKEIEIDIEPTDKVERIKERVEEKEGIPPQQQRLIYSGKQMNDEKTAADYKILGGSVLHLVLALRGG

binding result [1] | binding result [2] | Binder
no binding | – | Flag-HA-Uba6^C625S (enzyme, Catalytic cysteine changed to serine; also called C625S mutant; Flag-HA-Ub6^C625S; not shown: N-terminal Flag-HA tag) MEGSEPVAAHQGEKASCSSWGTGSTNKNLPIMSTASVEIDDALYSRQRYVLGDTAMQKMAKSHVFLSGMGGLGLEIAKNLVLAGIKAVTIHDTEKCQAWDLGTNFFLSEDDVVNKRNRAEAVLKHIAELNPYVHVTSSSAPFNETTDLSFLDKYQCVVLTEMKLPLQKKINDFCRSQCPPIKFISADVHGIWSRLFCDFGDEFEVLDTTGEEPKEIFISNITQTNPGIVTCLENHPHKLETGQFLTFREINGMTGLNGSIQQITVISPFSFSIGDTTELEPYLHGGIAVQVKTPKTVFFESLERQLKHPKCLIVDFSNPEAPLEIHTAMLALDQFQEKYSRKPNVGCQQDSEELLKLATSISETLEEKPDVNADIVHWLSWTAQGFLSPLAAAVGGVASQEVLKAVTGKFSPLCQWLYLEAADIVESLGKPECEEFLPRGDRYDALRACIGDTLCQKLQNLNIFLVGCGAIGCEMLKNFALLGVGTSKEKGMITVTDPDLIEKSNLNRQFLFRPHHIQKPKSYTAADATLKINSQIKIDAHLNKVCPTTETIYNDEFYTKQDVIITALDNVEARRYVDSRCLANLRPLLDSGTMGTKGHTEVIVPHLTESYNSHRDPPEEEIPFSTLKSFPAAIEHTIQWARDKFESSFSHKPSLFNKFWQTYSSAEEVLQKIQSGHSLEGCFQVIKLLSRRPRNWSQCVELARLKFEKYFNHKALQLLHCFPLDIRLKDGSLFWQSPKRPPSPIKFDLNEPLHLSFLQNAAKLYATVYCIPFAEEDLSADALLNILSEVKIQEFKPSNKVVQTDETARKPDHVPISSEDERNAIFQLEKAILSNEATKSDLQMAVLSFEKDDDHNGHIDFITAASNPRAKMYSIEPADRFKTKRIAGKIIPAIATTTATVSGLVALEMIKVTGGYPFEAYKNCFLNLAIPIVVFTETTEVRKTKIRNGISFTIWDRWTVHGKEDFTLLDFINAVKEKYGIEPTMVVQGVKMLYVPVMPGHAKRLKLTMHKLVKPTTEKKYVDLTVSFAPDIDGDEDLPGPPVRYYFSHDTD
– | binds | Flag-HA-Uba6 (enzyme, also called HA-Flag-Uba6; wild-type Uba6 with N-terminal Flag-HA tag; not shown: N-terminal Flag-HA tag) MEGSEPVAAHQGEKASCSSWGTGSTNKNLPIMSTASVEIDDALYSRQRYVLGDTAMQKMAKSHVFLSGMGGLGLEIAKNLVLAGIKAVTIHDTEKCQAWDLGTNFFLSEDDVVNKRNRAEAVLKHIAELNPYVHVTSSSAPFNETTDLSFLDKYQCVVLTEMKLPLQKKINDFCRSQCPPIKFISADVHGIWSRLFCDFGDEFEVLDTTGEEPKEIFISNITQTNPGIVTCLENHPHKLETGQFLTFREINGMTGLNGSIQQITVISPFSFSIGDTTELEPYLHGGIAVQVKTPKTVFFESLERQLKHPKCLIVDFSNPEAPLEIHTAMLALDQFQEKYSRKPNVGCQQDSEELLKLATSISETLEEKPDVNADIVHWLSWTAQGFLSPLAAAVGGVASQEVLKAVTGKFSPLCQWLYLEAADIVESLGKPECEEFLPRGDRYDALRACIGDTLCQKLQNLNIFLVGCGAIGCEMLKNFALLGVGTSKEKGMITVTDPDLIEKSNLNRQFLFRPHHIQKPKSYTAADATLKINSQIKIDAHLNKVCPTTETIYNDEFYTKQDVIITALDNVEARRYVDSRCLANLRPLLDSGTMGTKGHTEVIVPHLTESYNSHRDPPEEEIPFCTLKSFPAAIEHTIQWARDKFESSFSHKPSLFNKFWQTYSSAEEVLQKIQSGHSLEGCFQVIKLLSRRPRNWSQCVELARLKFEKYFNHKALQLLHCFPLDIRLKDGSLFWQSPKRPPSPIKFDLNEPLHLSFLQNAAKLYATVYCIPFAEEDLSADALLNILSEVKIQEFKPSNKVVQTDETARKPDHVPISSEDERNAIFQLEKAILSNEATKSDLQMAVLSFEKDDDHNGHIDFITAASNPRAKMYSIEPADRFKTKRIAGKIIPAIATTTATVSGLVALEMIKVTGGYPFEAYKNCFLNLAIPIVVFTETTEVRKTKIRNGISFTIWDRWTVHGKEDFTLLDFINAVKEKYGIEPTMVVQGVKMLYVPVMPGHAKRLKLTMHKLVKPTTEKKYVDLTVSFAPDIDGDEDLPGPPVRYYFSHDTD
